± gives the uncertainty stated by the source.
Test: self-splicing fitness, log relative to wild type (ln ratio); higher = more splicing; Tetrahymena group I intron in knt gene, E. coli kanamycin selection, DiMSum; sequences stand for … in CUCUCU…GGAGGGAAAAGUUAUCAGGCAUGCACCUGGUAGCUAGUCUUUAAACCAAUAGAUUGCAUCGGUUUAAAAGGCAAGACCGUCAAAUUGCGGGAAAGGGGUCAACAGCCGUUCAGUACCAAGUCUCAGGGGAAACUUUGAGAUGGCCUUGCAAAGGGUAUGGUAAUAAGCUGACGGACAUGGUCCUAACCACGCAGCCAAGUCCUAAGUCAACAGAUCUUCUGUUGAUAUGGAUGCAGUUCACAGACUAAAUGUCGGUCGGGGAAGAUGUAUUCUUCUCAUAAGAUAUAGUCGGACCUCUCCUUAAUGGGAGCUAGCGGAUGAAGUGAUGCAACACUGGAGCCGCUGGGAACUAAUUUGUAUGCGAAAGUAUAUUGAUUAGUUUUGGAGUACUCGUGGUCG
Outline: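 Six replicate transformations of E. coli BL21(DE3) with a pET-22b(+) library were grown overnight at 37°C or 30°C. The library randomised all eight P1ex-region intron nucleotides, the intron lying in the knt kanamycin-resistance gene, and plates were LB agar with or without 25 μg/mL kanamycin plus 100 μg/mL carbenicillin, 50 μM IPTG and 0.2% rhamnose. Pooled colonies were amplicon-sequenced on an Illumina HiSeq 2500, and fitness is the DiMSum error-weighted combination of wild-type-normalised replicate fold changes, kanamycin versus none.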

Row | Sequence | self-splicing fitness (ln) (30 °C) | self-splicing fitness (ln) (37 °C)
1 | ACAAAGCAAUAUUACGCAUU | -3.06 ± 0.095 | -1.56 ± 0.082
2 | ACAAAGCAAUAUUACGCCCC | -0.67 ± 0.27 | -0.241 ± 0.26
3 | ACAAAGCAAUAUUACGCGGU | -3.37 ± 0.13 | -2.68 ± 0.14
4 | ACAAAGCAAUAUUACGCUGU | -2.48 ± 0.14 | -3.01 ± 0.27
5 | ACAAAGCAAUAUUACGGAGA | -3.37 ± 0.19 | -2.39 ± 0.19
6 | ACAAAGCAAUAUUACGGGAG | -1.72 ± 0.1 | -1.08 ± 0.12
7 | ACAAAGCAAUAUUACGGUGA | -1.28 ± 0.069 | -0.535 ± 0.07
8 | ACAAAGCAAUAUUACGUGAC | -3.4 ± 0.11 | -1.37 ± 0.092
9 | ACAAAGCAAUAUUACGUGCA | -0.78 ± 0.057 | -0.154 ± 0.074
10 | ACAAAGCAAUAUUACGUGCC | -1.14 ± 0.077 | -1.16 ± 0.097
11 | ACAAAGCAAUAUUACGUGCU | -0.981 ± 0.069 | -0.486 ± 0.082
12 | ACAAAGCAAUAUUACGUGGU | -2.87 ± 0.084 | -2.99 ± 0.12
13 | ACAAAGCAAUAUUACGUUCG | -1.28 ± 0.049 | -0.0172 ± 0.067
14 | ACAAAGCAAUAUUACGUUGU | -3.68 ± 0.14 | -2.18 ± 0.15
15 | ACACAGCAAUAUUACGAAGU | -3.43 ± 0.14 | -2.21 ± 0.15
16 | ACACAGCAAUAUUACGACGA | -0.721 ± 0.074 | -0.406 ± 0.081
17 | ACACAGCAAUAUUACGACGU | -0.452 ± 0.048 | 0.722 ± 0.073
18 | ACACAGCAAUAUUACGAGAG | -3.65 ± 0.14 | -2.37 ± 0.12
19 | ACACAGCAAUAUUACGAGCC | -1.97 ± 0.17 | -0.179 ± 0.19
20 | ACACAGCAAUAUUACGAGUA | -2.69 ± 0.12 | -0.889 ± 0.081
21 | ACACAGCAAUAUUACGAUUC | -1.96 ± 0.049 | -1.32 ± 0.072
22 | ACACAGCAAUAUUACGCAAC | -5.33 ± 0.36 | -1.88 ± 0.17
23 | ACACAGCAAUAUUACGCCUG | -0.898 ± 0.07 | -0.245 ± 0.076
24 | ACACAGCAAUAUUACGCUGA | -2.42 ± 0.096 | -1.47 ± 0.083

From the supplement of paper PMC7877785
